Numbered stars: 1 amine (or outer) side, 2 acyl side, 3 side chain; on linkers, the order of the positions; unused ones are H or OH. Bridge positions count the residues as written; N and C are the ends. Square brackets hold non-standard residues; d marks the D form. Primed or numbered codes have the meaning given here. Ends that are not written are not given here. * marks the point of attachment. X13 = (2S)‑2‑amino‑3‑(1-methylcyclopropyl)propanoic acid, CC1(C[C@H](N[*:1])C(=O)[*:2])CC1; Tranexamic″ = tranexamic acid, NC[C@H]1CC[C@@H](C(=O)*)CC1; Piperidin‑4‑ylacetic acid = O=C(CC1CCNCC1)*; Oic = O=C(O)[C@@H]1C[C@@H]2CCCC[C@@H]2N1; Cyclopropylacetic acid = O=C(CC1CC1)*; Gly(cPent) = N[C@H](C(=O)O)C1CCCC1; NMeI = CC[C@H](C)[C@H](NC)C(=O)O; aIle = CC[C@@H](C)[C@H](N)C(=O)O; tBuAla = CC(C)(C)C[C@H](N)C(=O)O; aThr = C[C@H](O)[C@H](N)C(=O)O; Chg = N[C@H](C(=O)O)C1CCCCC1; Pen = CC(C)(S)[C@H](N)C(=O)O; NMeC = CN[C@@H](CS)C(=O)O; Sar = CNCC(=O)O
T1: Recombinant human MASP1 enzyme (fragment corresponding to amino acids 297-699, C-terminal His Tag) (human, UniProt P48740 297-699)
T1 sequence: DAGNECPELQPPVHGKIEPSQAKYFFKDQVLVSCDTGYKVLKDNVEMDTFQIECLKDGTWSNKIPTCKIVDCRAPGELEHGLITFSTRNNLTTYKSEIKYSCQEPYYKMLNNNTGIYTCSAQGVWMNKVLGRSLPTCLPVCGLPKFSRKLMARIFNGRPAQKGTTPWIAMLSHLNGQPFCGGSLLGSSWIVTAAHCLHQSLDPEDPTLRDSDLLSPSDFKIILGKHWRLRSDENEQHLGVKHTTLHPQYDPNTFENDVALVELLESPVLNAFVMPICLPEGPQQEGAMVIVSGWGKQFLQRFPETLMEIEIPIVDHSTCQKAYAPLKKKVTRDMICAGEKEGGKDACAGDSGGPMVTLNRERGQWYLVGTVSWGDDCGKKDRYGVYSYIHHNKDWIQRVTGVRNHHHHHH


What was measured:
[1] = biological target: T1, Recombinant human MASP1 enzyme …; assay: cell-based or functional assay
[2] = biological target: Recombinant human MASP2 enzyme (fragment corresponding to amino acids 297-686, C-terminal His Tag) (human, UniProt O00187 297-686); assay: cell-based or functional assay
Sequence of Recombinant human MASP2 enzyme (fragment corresponding to amino acids 297-686, C-terminal His Tag) (O00187 other isoform, or with tags, fused parts or gaps limits assumed): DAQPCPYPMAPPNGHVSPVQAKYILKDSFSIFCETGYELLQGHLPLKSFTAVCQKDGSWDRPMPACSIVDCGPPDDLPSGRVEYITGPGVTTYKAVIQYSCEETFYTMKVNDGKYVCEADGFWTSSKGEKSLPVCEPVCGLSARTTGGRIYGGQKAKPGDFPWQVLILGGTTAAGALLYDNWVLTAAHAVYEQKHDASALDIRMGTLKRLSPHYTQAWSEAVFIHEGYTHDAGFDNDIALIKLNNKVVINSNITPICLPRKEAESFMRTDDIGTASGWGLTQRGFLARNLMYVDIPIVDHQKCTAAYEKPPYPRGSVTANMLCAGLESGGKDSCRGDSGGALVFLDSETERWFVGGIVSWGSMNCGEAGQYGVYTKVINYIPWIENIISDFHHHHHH

Binder | human MASP1 IC50 [1] | human MASP2 IC50 [2]
[Sar][Sar][Sar][Sar][Sar]ICSRS[tBuAla]PPI[Pen]IP-NH2 (disulfide 7-15; N-terminus assumed; SMILES CC[C@H](C)[C@H](NC(=O)CN(C)C(=O)CN(C)C(=O)CN(C)C(=O)CN(C)C(=O)CNC)C(=O)N[C@H]1CSSC(C)(C)[C@@H](C(=O)N[C@H](C(=O)N2CCC[C@H]2C(N)=O)[C@@H](C)CC)NC(=O)[C@H]([C@@H](C)CC)NC(=O)[C@@H]2CCCN2C(=O)[C@@H]2CCCN2C(=O)[C@H](CC(C)(C)C)NC(=O)[C@H](CO)NC(=O)[C@H](CCCNC(=N)N)NC(=O)[C@H](CO)NC1=O) [((N-Me)G)-((N-Me)G)-((N-Me)G)-((N-Me)G)-((N-Me)G)-IC+SRS-((tBu)A)-PPI-(Pen)+IP-NH2] | 11 nM | 38 nM
{Tranexamic″}-ICSRS[tBuAla]PPI[Pen]IP-NH2 (disulfide 2-10; SMILES CC[C@H](C)[C@@H]1NC(=O)[C@@H]2CCCN2C(=O)[C@@H]2CCCN2C(=O)[C@H](CC(C)(C)C)NC(=O)[C@H](CO)NC(=O)[C@H](CCCNC(=N)N)NC(=O)[C@H](CO)NC(=O)[C@@H](NC(=O)[C@@H](NC(=O)[C@H]2CC[C@@H](CN)CC2)[C@@H](C)CC)CSSC(C)(C)[C@@H](C(=O)N[C@H](C(=O)N2CCC[C@H]2C(N)=O)[C@@H](C)CC)NC1=O) [(Tranexamic)-IC+SRS-((tBu)A)-PPI-(Pen)+IP-NH2] | 12 nM | 17 nM
A[NMeI]CSRSLPPICIPD-NH2 (disulfide 3-11; N-terminus assumed; SMILES CC[C@H](C)[C@@H]1NC(=O)[C@@H]2CCCN2C(=O)[C@@H]2CCCN2C(=O)[C@H](CC(C)C)NC(=O)[C@H](CO)NC(=O)[C@H](CCCNC(=N)N)NC(=O)[C@H](CO)NC(=O)[C@@H](NC(=O)[C@H]([C@@H](C)CC)N(C)C(=O)[C@H](C)N)CSSC[C@@H](C(=O)N[C@H](C(=O)N2CCC[C@H]2C(=O)N[C@@H](CC(=O)O)C(N)=O)[C@@H](C)CC)NC1=O) [A-((N-Me)I)-C+SRSLPPIC+IPD-NH2] | 10.1 nM | 2700 nM
G[NMeI]CSRSLPPICIP[dD]-OH (disulfide 3-11; N-terminus assumed; SMILES CC[C@H](C)[C@@H]1NC(=O)[C@@H]2CCCN2C(=O)[C@@H]2CCCN2C(=O)[C@H](CC(C)C)NC(=O)[C@H](CO)NC(=O)[C@H](CCCNC(=N)N)NC(=O)[C@H](CO)NC(=O)[C@@H](NC(=O)[C@H]([C@@H](C)CC)N(C)C(=O)CN)CSSC[C@@H](C(=O)N[C@H](C(=O)N2CCC[C@H]2C(=O)N[C@H](CC(=O)O)C(=O)O)[C@@H](C)CC)NC1=O) [G-((N-Me)I)-C+SRSLPPIC+IPd-OH] | 14 nM | 1300 nM
{Piperidin‑4‑ylacetic acid}-ICSRS[tBuAla]PPI[NMeC]I-NH2 (disulfide 2-10; SMILES CC[C@H](C)[C@H](NC(=O)[C@@H]1CSSC[C@H](NC(=O)[C@@H](NC(=O)CC2CCNCC2)[C@@H](C)CC)C(=O)N[C@@H](CO)C(=O)N[C@@H](CCCNC(=N)N)C(=O)N[C@@H](CO)C(=O)N[C@@H](CC(C)(C)C)C(=O)N2CCC[C@H]2C(=O)N2CCC[C@H]2C(=O)N[C@@H]([C@@H](C)CC)C(=O)N1C)C(N)=O) [(Piperidin-4-ylacetic acid)-IC+SRS-((tBu)A)-PPI-((N-Me)C)+I-NH2] | 10 nM | 32 nM
AICSRSLPP[Gly(cPent)]CIPD-NH2 (disulfide 3-11; N-terminus assumed; SMILES CC[C@H](C)[C@H](NC(=O)[C@H](C)N)C(=O)N[C@H]1CSSC[C@@H](C(=O)N[C@H](C(=O)N2CCC[C@H]2C(=O)N[C@@H](CC(=O)O)C(N)=O)[C@@H](C)CC)NC(=O)[C@H](C2CCCC2)NC(=O)[C@@H]2CCCN2C(=O)[C@@H]2CCCN2C(=O)[C@H](CC(C)C)NC(=O)[C@H](CO)NC(=O)[C@H](CCCNC(=N)N)NC(=O)[C@H](CO)NC1=O) [AIC+SRSLPP-(Cpg)-C+IPD-NH2] | 11 nM | 170 nM
AICSR[aThr]LPPICIPD-NH2 (disulfide 3-11; N-terminus assumed; SMILES CC[C@H](C)[C@H](NC(=O)[C@H](C)N)C(=O)N[C@H]1CSSC[C@@H](C(=O)N[C@H](C(=O)N2CCC[C@H]2C(=O)N[C@@H](CC(=O)O)C(N)=O)[C@@H](C)CC)NC(=O)[C@H]([C@@H](C)CC)NC(=O)[C@@H]2CCCN2C(=O)[C@@H]2CCCN2C(=O)[C@H](CC(C)C)NC(=O)[C@H]([C@H](C)O)NC(=O)[C@H](CCCNC(=N)N)NC(=O)[C@H](CO)NC1=O) [AIC+SR-(allo-T)-LPPIC+IPD-NH2] | 14 nM | 330 nM
AICSRSLP[Oic][Chg]CIPD-NH2 (disulfide 3-11; N-terminus assumed; SMILES CC[C@H](C)[C@H](NC(=O)[C@H](C)N)C(=O)N[C@H]1CSSC[C@@H](C(=O)N[C@H](C(=O)N2CCC[C@H]2C(=O)N[C@@H](CC(=O)O)C(N)=O)[C@@H](C)CC)NC(=O)[C@H](C2CCCCC2)NC(=O)[C@@H]2C[C@@H]3CCCC[C@@H]3N2C(=O)[C@@H]2CCCN2C(=O)[C@H](CC(C)C)NC(=O)[C@H](CO)NC(=O)[C@H](CCCNC(=N)N)NC(=O)[C@H](CO)NC1=O) [AIC+SRSLP-(Oic)-(Chg)-C+IPD-NH2] | 12 nM | 290 nM
[Sar]ICSRSLP[Oic]I[Pen]IP-NH2 (disulfide 3-11; also: tartrate salt) [((N-Me)G)-IC+SRSLP-(Oic)-I-(Pen)+IP-NH2 (Tartrate)] | 1.1 nM | 35 nM
ICSRSLP[Oic]I[Pen]IP-OH (disulfide 2-10; N-terminus assumed; SMILES CC[C@H](C)[C@H](N)C(=O)N[C@H]1CSSC(C)(C)[C@@H](C(=O)N[C@H](C(=O)N2CCC[C@H]2C(=O)O)[C@@H](C)CC)NC(=O)[C@H]([C@@H](C)CC)NC(=O)[C@@H]2C[C@@H]3CCCC[C@@H]3N2C(=O)[C@@H]2CCCN2C(=O)[C@H](CC(C)C)NC(=O)[C@H](CO)NC(=O)[C@H](CCCNC(=N)N)NC(=O)[C@H](CO)NC1=O) [IC+SRSLP-(Oic)-I-(Pen)+IP-OH] | 11 nM | 1200 nM
AICSRS[tBuAla]P[Oic]I[NMeC]IPD-NH2 (disulfide 3-11; N-terminus assumed; SMILES CC[C@H](C)[C@H](NC(=O)[C@H](C)N)C(=O)N[C@H]1CSSC[C@@H](C(=O)N[C@H](C(=O)N2CCC[C@H]2C(=O)N[C@@H](CC(=O)O)C(N)=O)[C@@H](C)CC)N(C)C(=O)[C@H]([C@@H](C)CC)NC(=O)[C@@H]2C[C@@H]3CCCC[C@@H]3N2C(=O)[C@@H]2CCCN2C(=O)[C@H](CC(C)(C)C)NC(=O)[C@H](CO)NC(=O)[C@H](CCCNC(=N)N)NC(=O)[C@H](CO)NC1=O) [AIC+SRS-((tBu)A)-P-(Oic)-I-((N-Me)C)+IPD-NH2] | 12 nM | 370 nM
[Sar]ICSRS[X13]P[Oic]I[Pen]IP-NH2 (disulfide 3-11; N-terminus assumed; SMILES CC[C@H](C)[C@H](NC(=O)CNC)C(=O)N[C@H]1CSSC(C)(C)[C@@H](C(=O)N[C@H](C(=O)N2CCC[C@H]2C(N)=O)[C@@H](C)CC)NC(=O)[C@H]([C@@H](C)CC)NC(=O)[C@@H]2C[C@@H]3CCCC[C@@H]3N2C(=O)[C@@H]2CCCN2C(=O)[C@H](CC2(C)CC2)NC(=O)[C@H](CO)NC(=O)[C@H](CCCNC(=N)N)NC(=O)[C@H](CO)NC1=O) [((N-Me)G)-IC+SRS-((2S)-2-amino-3-(1-methylcyclopropyl)propanoic acid)-P-(Oic)-I-(Pen)+IP-NH2] | 11 nM | 57 nM
[Sar]ICSRSLPPIC[aIle]PD-NH2 (disulfide 3-11; N-terminus assumed; SMILES CC[C@@H](C)[C@H](NC(=O)[C@@H]1CSSC[C@H](NC(=O)[C@@H](NC(=O)CNC)[C@@H](C)CC)C(=O)N[C@@H](CO)C(=O)N[C@@H](CCCNC(=N)N)C(=O)N[C@@H](CO)C(=O)N[C@@H](CC(C)C)C(=O)N2CCC[C@H]2C(=O)N2CCC[C@H]2C(=O)N[C@@H]([C@@H](C)CC)C(=O)N1)C(=O)N1CCC[C@H]1C(=O)N[C@@H](CC(=O)O)C(N)=O) [((N-Me)G)-IC+SRSLPPIC+(allo-I)-PD-NH2] | 14 nM | 170 nM
G[NMeI]CSRSLPPICIPD-OH (disulfide 3-11; N-terminus assumed; SMILES CC[C@H](C)[C@@H]1NC(=O)[C@@H]2CCCN2C(=O)[C@@H]2CCCN2C(=O)[C@H](CC(C)C)NC(=O)[C@H](CO)NC(=O)[C@H](CCCNC(=N)N)NC(=O)[C@H](CO)NC(=O)[C@@H](NC(=O)[C@H]([C@@H](C)CC)N(C)C(=O)CN)CSSC[C@@H](C(=O)N[C@H](C(=O)N2CCC[C@H]2C(=O)N[C@@H](CC(=O)O)C(=O)O)[C@@H](C)CC)NC1=O) [G-((N-Me)I)-C+SRSLPPIC+IPD-OH] | 14 nM | 1100 nM
{Cyclopropylacetic acid}-ICSRS[tBuAla]PPI[NMeC]I-NH2 (disulfide 2-10; SMILES CC[C@H](C)[C@H](NC(=O)[C@@H]1CSSC[C@H](NC(=O)[C@@H](NC(=O)CC2CC2)[C@@H](C)CC)C(=O)N[C@@H](CO)C(=O)N[C@@H](CCCNC(=N)N)C(=O)N[C@@H](CO)C(=O)N[C@@H](CC(C)(C)C)C(=O)N2CCC[C@H]2C(=O)N2CCC[C@H]2C(=O)N[C@@H]([C@@H](C)CC)C(=O)N1C)C(N)=O) [(Cyclopropylacetic acid)-IC+SRS-((tBu)A)-PPI-((N-Me)C)+I-NH2] | 13 nM | 55 nM

Reference: patent US20210246166A1 (Bayer, published 2021)
